From the Human Domainome abundance scans (Beltran et al. 2025)
± gives the uncertainty stated by the source.

Assay: abundance fitness (aPCA) (normalised: wild type 0, dead -1); higher = more abundant; growth selection in yeast, the domain comes from the species named
Details: Homo sapiens

| Substance | abundance fitness |
| --- | --- |
| SAFB-like transcription modulator D40L, Q9NWH9 | -0.35 ± 0.066 |
| SAFB-like transcription modulator D40M, Q9NWH9 | -0.377 ± 0.067 |
| SAFB-like transcription modulator D40Q, Q9NWH9 | -0.486 ± 0.12 |
| SAFB-like transcription modulator D40R, Q9NWH9 | -0.354 ± 0.066 |
| SAFB-like transcription modulator D40S, Q9NWH9 | -0.148 ± 0.062 |
| SAFB-like transcription modulator D40T, Q9NWH9 | -0.375 ± 0.049 |
| SAFB-like transcription modulator D40V, Q9NWH9 | -0.417 ± 0.072 |
| SAFB-like transcription modulator D62A, Q9NWH9 | -0.386 ± 0.045 |
| SAFB-like transcription modulator D62C, Q9NWH9 | -0.198 ± 0.045 |
| SAFB-like transcription modulator D62E, Q9NWH9 | -0.397 ± 0.047 |
| SAFB-like transcription modulator D62F, Q9NWH9 | -0.526 ± 0.073 |
| SAFB-like transcription modulator D62G, Q9NWH9 | -0.534 ± 0.054 |
| SAFB-like transcription modulator D62H, Q9NWH9 | -0.253 ± 0.077 |
| SAFB-like transcription modulator D62I, Q9NWH9 | -0.339 ± 0.049 |
| SAFB-like transcription modulator D62K, Q9NWH9 | -0.531 ± 0.062 |
| SAFB-like transcription modulator D62L, Q9NWH9 | -0.46 ± 0.047 |
| SAFB-like transcription modulator D62M, Q9NWH9 | -0.69 ± 0.081 |
| SAFB-like transcription modulator D62N, Q9NWH9 | -0.089 ± 0.05 |
| SAFB-like transcription modulator D62P, Q9NWH9 | -0.474 ± 0.076 |
| SAFB-like transcription modulator D62Q, Q9NWH9 | -0.334 ± 0.079 |
| SAFB-like transcription modulator D62R, Q9NWH9 | -0.331 ± 0.052 |
| SAFB-like transcription modulator D62S, Q9NWH9 | -0.191 ± 0.046 |
| SAFB-like transcription modulator D62T, Q9NWH9 | -0.212 ± 0.066 |
| SAFB-like transcription modulator D62V, Q9NWH9 | -0.397 ± 0.039 |
| SAFB-like transcription modulator D62W, Q9NWH9 | -0.66 ± 0.045 |
| SAFB-like transcription modulator D62Y, Q9NWH9 | -0.46 ± 0.064 |

| Substance | abundance fitness |
| --- | --- |
| SAFB-like transcription modulator D64A, Q9NWH9 | -0.12 ± 0.04 |
| SAFB-like transcription modulator D64C, Q9NWH9 | -0.166 ± 0.05 |
| SAFB-like transcription modulator D64E, Q9NWH9 | -0.038 ± 0.034 |
| SAFB-like transcription modulator D64F, Q9NWH9 | -0.144 ± 0.048 |
| SAFB-like transcription modulator D64G, Q9NWH9 | -0.09 ± 0.041 |
| SAFB-like transcription modulator D64H, Q9NWH9 | -0.124 ± 0.058 |
| SAFB-like transcription modulator D64I, Q9NWH9 | -0.28 ± 0.072 |
| SAFB-like transcription modulator D64K, Q9NWH9 | -0.171 ± 0.058 |
| SAFB-like transcription modulator D64M, Q9NWH9 | -0.016 ± 0.04 |
| SAFB-like transcription modulator D64N, Q9NWH9 | 0.035 ± 0.037 |
| SAFB-like transcription modulator D64P, Q9NWH9 | -0.519 ± 0.039 |
| SAFB-like transcription modulator D64R, Q9NWH9 | -0.23 ± 0.032 |
| SAFB-like transcription modulator D64S, Q9NWH9 | -0.113 ± 0.035 |
| SAFB-like transcription modulator D64T, Q9NWH9 | -0.076 ± 0.04 |
| SAFB-like transcription modulator D64V, Q9NWH9 | -0.317 ± 0.045 |
| SAFB-like transcription modulator D64W, Q9NWH9 | -0.068 ± 0.046 |
| SAFB-like transcription modulator E33A, Q9NWH9 | -0.455 ± 0.068 |
| SAFB-like transcription modulator E33C, Q9NWH9 | -0.68 ± 0.1 |
| SAFB-like transcription modulator E33D, Q9NWH9 | -0.916 ± 0.16 |
| SAFB-like transcription modulator E33F, Q9NWH9 | -0.645 ± 0.049 |
| SAFB-like transcription modulator E33G, Q9NWH9 | -0.974 ± 0.086 |
| SAFB-like transcription modulator E33H, Q9NWH9 | -0.512 ± 0.13 |
| SAFB-like transcription modulator E33K, Q9NWH9 | -0.89 ± 0.18 |
| SAFB-like transcription modulator E33L, Q9NWH9 | -0.123 ± 0.061 |
| SAFB-like transcription modulator E33M, Q9NWH9 | -0.007 ± 0.083 |
| SAFB-like transcription modulator E33N, Q9NWH9 | -0.755 ± 0.1 |

| Substance | abundance fitness |
| --- | --- |
| SAFB-like transcription modulator E33P, Q9NWH9 | -1.16 ± 0.2 |
| SAFB-like transcription modulator E33Q, Q9NWH9 | -0.111 ± 0.079 |
| SAFB-like transcription modulator E33R, Q9NWH9 | -0.961 ± 0.077 |
| SAFB-like transcription modulator E33S, Q9NWH9 | -0.353 ± 0.078 |
| SAFB-like transcription modulator E33T, Q9NWH9 | -1.08 ± 0.17 |
| SAFB-like transcription modulator E33V, Q9NWH9 | -0.917 ± 0.094 |
| SAFB-like transcription modulator E33W, Q9NWH9 | -0.871 ± 0.1 |
| SAFB-like transcription modulator E57A, Q9NWH9 | -0.085 ± 0.082 |
| SAFB-like transcription modulator E57C, Q9NWH9 | -0.192 ± 0.096 |
| SAFB-like transcription modulator E57D, Q9NWH9 | -0.164 ± 0.086 |
| SAFB-like transcription modulator E57G, Q9NWH9 | -0.204 ± 0.044 |
| SAFB-like transcription modulator E57H, Q9NWH9 | 0.063 ± 0.16 |
| SAFB-like transcription modulator E57I, Q9NWH9 | 0.048 ± 0.39 |
| SAFB-like transcription modulator E57K, Q9NWH9 | -0.159 ± 0.11 |
| SAFB-like transcription modulator E57L, Q9NWH9 | -0.049 ± 0.071 |
| SAFB-like transcription modulator E57M, Q9NWH9 | -0.164 ± 0.094 |
| SAFB-like transcription modulator E57Q, Q9NWH9 | -0.667 ± 0.25 |
| SAFB-like transcription modulator E57R, Q9NWH9 | 0.034 ± 0.06 |
| SAFB-like transcription modulator E57S, Q9NWH9 | -0.031 ± 0.056 |
| SAFB-like transcription modulator E57T, Q9NWH9 | -0.122 ± 0.079 |
| SAFB-like transcription modulator E57V, Q9NWH9 | -0.064 ± 0.063 |
| SAFB-like transcription modulator E57W, Q9NWH9 | -0.124 ± 0.059 |
| SAFB-like transcription modulator E57Y, Q9NWH9 | -0.319 ± 0.11 |
| SAFB-like transcription modulator E58A, Q9NWH9 | -0.026 ± 0.06 |
| SAFB-like transcription modulator E58C, Q9NWH9 | -0.113 ± 0.064 |
| SAFB-like transcription modulator E58D, Q9NWH9 | -0.444 ± 0.15 |

| Substance | abundance fitness |
| --- | --- |
| SAFB-like transcription modulator E58F, Q9NWH9 | -0.105 ± 0.054 |
| SAFB-like transcription modulator E58G, Q9NWH9 | -0.021 ± 0.051 |
| SAFB-like transcription modulator E58H, Q9NWH9 | 0.147 ± 0.084 |
| SAFB-like transcription modulator E58K, Q9NWH9 | -0.134 ± 0.084 |
| SAFB-like transcription modulator E58L, Q9NWH9 | -0.036 ± 0.036 |
| SAFB-like transcription modulator E58M, Q9NWH9 | 0.008 ± 0.071 |
| SAFB-like transcription modulator E58N, Q9NWH9 | -0.068 ± 0.077 |
| SAFB-like transcription modulator E58P, Q9NWH9 | -0.867 ± 0.12 |
| SAFB-like transcription modulator E58Q, Q9NWH9 | -0.014 ± 0.077 |
| SAFB-like transcription modulator E58R, Q9NWH9 | 0.028 ± 0.034 |
| SAFB-like transcription modulator E58S, Q9NWH9 | 0.024 ± 0.053 |
| SAFB-like transcription modulator E58T, Q9NWH9 | -0.043 ± 0.067 |
| SAFB-like transcription modulator E58V, Q9NWH9 | -0.074 ± 0.06 |
| SAFB-like transcription modulator E58W, Q9NWH9 | -0.52 ± 0.076 |
| SAFB-like transcription modulator E58Y, Q9NWH9 | -0.342 ± 0.076 |
| SAFB-like transcription modulator E59C, Q9NWH9 | -0.404 ± 0.037 |
| SAFB-like transcription modulator E59D, Q9NWH9 | -0.225 ± 0.087 |
| SAFB-like transcription modulator E59F, Q9NWH9 | -0.924 ± 0.07 |
| SAFB-like transcription modulator E59G, Q9NWH9 | -0.226 ± 0.044 |
| SAFB-like transcription modulator E59I, Q9NWH9 | -0.784 ± 0.1 |
| SAFB-like transcription modulator E59K, Q9NWH9 | -0.653 ± 0.13 |
| SAFB-like transcription modulator E59L, Q9NWH9 | -0.794 ± 0.041 |
| SAFB-like transcription modulator E59N, Q9NWH9 | -0.275 ± 0.056 |
| SAFB-like transcription modulator E59P, Q9NWH9 | -0.768 ± 0.05 |
| SAFB-like transcription modulator E59Q, Q9NWH9 | -0.336 ± 0.078 |
